Data set [1] deals with heat shock protein 90 (rabbit (endogenous in reticulocyte lysate)) (UniProt P30946).
A further data set concerns AhR A375V;ARNT. Briefly: EMSA. The following applies: MEDG (25 mM MOPS pH 7.5, 1 mM EDTA, 1 mM DTT, 10% glycerol), 150 mM KCl (no added KCl for AhRdPASB and AhR/PASB-ARNT), AhR:ARNT:buffer 1:1:8, 10 nM TCDD or 1% ….
The subject of another data set is AhR D371A;ARNT. Nature of the data set: EMSA. The following applies: MEDG (25 mM MOPS pH 7.5, 1 mM EDTA, 1 mM DTT, 10% glycerol), 150 mM KCl (no added KCl for AhRdPASB and AhR/PASB-ARNT), AhR:ARNT:buffer 1:1:8, 10 nM TCDD or 1% ….
In a further data set the test system is AhR F281A;ARNT. Nature of the data set: EMSA. As to conditions: MEDG (25 mM MOPS pH 7.5, 1 mM EDTA, 1 mM DTT, 10% glycerol), 150 mM KCl (no added KCl for AhRdPASB and AhR/PASB-ARNT), AhR:ARNT:buffer 1:1:8, 10 nM TCDD or 1% ….
The next data set deals with AhR R217A;ARNT. Briefly: EMSA. As to conditions: MEDG (25 mM MOPS pH 7.5, 1 mM EDTA, 1 mM DTT, 10% glycerol), 150 mM KCl (no added KCl for AhRdPASB and AhR/PASB-ARNT), AhR:ARNT:buffer 1:1:8, 10 nM TCDD or 1% ….
In the next data set the test system is AhR/PASB-ARNT;ARNT. Briefly: EMSA. The following applies: MEDG (25 mM MOPS pH 7.5, 1 mM EDTA, 1 mM DTT, 10% glycerol), 150 mM KCl (no added KCl for AhRdPASB and AhR/PASB-ARNT), AhR:ARNT:buffer 1:1:8, 10 nM TCDD or 1% ….
Another data set deals with AhRdPASB;ARNT. Briefly: EMSA. As to conditions: MEDG (25 mM MOPS pH 7.5, 1 mM EDTA, 1 mM DTT, 10% glycerol), 150 mM KCl (no added KCl for AhRdPASB and AhR/PASB-ARNT), AhR:ARNT:buffer 1:1:8, 10 nM TCDD or 1% ….
The next data set has as its system wtAhR;ARNT. Nature of the data set: EMSA. The following applies: MEDG (25 mM MOPS pH 7.5, 1 mM EDTA, 1 mM DTT, 10% glycerol), 150 mM KCl (no added KCl for AhRdPASB and AhR/PASB-ARNT), AhR:ARNT:buffer 1:1:8, 10 nM TCDD or 1% ….
The target of data set [2] is T1, aryl hydrocarbon receptor (AhR), wild type (Mus musculus, UniProt P30561).
T1 construct: wtAhR (mβAhR/pcDNA3), synthesized in vitro in rabbit reticulocyte lysate
T1 sequence (P30561 10-848): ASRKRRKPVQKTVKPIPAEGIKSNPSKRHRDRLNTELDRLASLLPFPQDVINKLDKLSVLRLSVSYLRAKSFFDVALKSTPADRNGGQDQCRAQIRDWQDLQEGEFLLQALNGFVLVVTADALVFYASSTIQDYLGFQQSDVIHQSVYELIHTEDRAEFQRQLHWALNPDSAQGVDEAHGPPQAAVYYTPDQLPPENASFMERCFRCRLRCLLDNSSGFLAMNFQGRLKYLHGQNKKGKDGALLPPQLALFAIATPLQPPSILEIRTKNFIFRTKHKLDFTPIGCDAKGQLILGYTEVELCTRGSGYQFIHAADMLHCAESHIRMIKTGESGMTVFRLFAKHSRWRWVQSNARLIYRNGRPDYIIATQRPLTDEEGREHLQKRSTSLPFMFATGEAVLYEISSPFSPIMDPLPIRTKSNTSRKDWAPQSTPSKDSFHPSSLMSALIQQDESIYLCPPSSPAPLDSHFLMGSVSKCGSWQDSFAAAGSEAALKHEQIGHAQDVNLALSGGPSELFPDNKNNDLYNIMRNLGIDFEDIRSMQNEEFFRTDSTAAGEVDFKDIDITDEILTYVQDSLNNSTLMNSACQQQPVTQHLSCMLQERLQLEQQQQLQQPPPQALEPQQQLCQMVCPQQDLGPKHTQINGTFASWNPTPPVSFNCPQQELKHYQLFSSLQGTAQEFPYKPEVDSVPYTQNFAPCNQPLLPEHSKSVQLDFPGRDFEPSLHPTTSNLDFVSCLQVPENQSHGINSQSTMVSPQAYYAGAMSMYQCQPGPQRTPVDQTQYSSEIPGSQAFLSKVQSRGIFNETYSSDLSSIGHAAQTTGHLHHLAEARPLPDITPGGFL
Nature of the data set: [3H]TCDD saturation binding, hydroxyapatite assay.

Data set [3] deals with T2, aryl hydrocarbon receptor (AhR) (Mus musculus, UniProt P30561, D371A).
T2 construct: mutant of mβAhR/pcDNA3, synthesized in vitro in rabbit reticulocyte lysate
T2 sequence (P30561 10-848 D371A): T1 sequence (P30561 10-848) with D362A
Briefly: [3H]TCDD saturation binding, hydroxyapatite assay.

Numbering of substitutions follows the chain as printed.

Sequence of AhRdPASB (P30561 whole entry): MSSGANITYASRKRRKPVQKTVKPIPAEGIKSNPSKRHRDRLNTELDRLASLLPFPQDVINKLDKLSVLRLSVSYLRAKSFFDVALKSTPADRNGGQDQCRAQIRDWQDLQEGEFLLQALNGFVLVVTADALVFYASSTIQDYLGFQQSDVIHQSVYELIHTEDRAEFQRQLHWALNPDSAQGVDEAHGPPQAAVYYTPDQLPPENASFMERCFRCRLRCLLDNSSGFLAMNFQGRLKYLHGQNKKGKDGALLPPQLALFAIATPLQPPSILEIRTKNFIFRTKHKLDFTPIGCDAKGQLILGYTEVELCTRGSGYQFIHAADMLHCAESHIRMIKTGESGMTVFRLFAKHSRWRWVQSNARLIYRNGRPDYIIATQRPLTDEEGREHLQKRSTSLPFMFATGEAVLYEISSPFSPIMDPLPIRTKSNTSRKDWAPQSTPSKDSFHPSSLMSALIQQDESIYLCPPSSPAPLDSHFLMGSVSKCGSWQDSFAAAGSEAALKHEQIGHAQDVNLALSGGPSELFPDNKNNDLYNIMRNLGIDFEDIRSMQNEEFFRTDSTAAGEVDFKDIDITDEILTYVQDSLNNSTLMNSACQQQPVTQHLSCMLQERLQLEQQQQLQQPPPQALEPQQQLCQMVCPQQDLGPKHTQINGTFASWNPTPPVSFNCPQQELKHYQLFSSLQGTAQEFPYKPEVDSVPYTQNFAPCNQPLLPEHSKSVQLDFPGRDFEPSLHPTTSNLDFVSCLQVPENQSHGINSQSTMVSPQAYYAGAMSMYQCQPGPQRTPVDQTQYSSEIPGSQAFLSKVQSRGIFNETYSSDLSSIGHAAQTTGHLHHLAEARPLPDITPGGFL
Sequence of wild type aryl hydrocarbon receptor (mouse) (P30561 whole entry): as above

In the case of AhR/PASB-ARNT, in [1], the percent inhibition by sodium molybdate of constitutive AhR transformation/DNA binding in vitro (gel retardation) was 9.1%.

In turn, “AhR F281A (from UniProt P30561 1-848) (natural protein)” yielded a percent inhibition by 20 mM sodium molybdate of constitutive AhR transformation/DNA binding in vitro (gel retardation) in data set [1] of 5%.

Consider “AhRdPASB (from UniProt P30561 1-848) (natural protein)”, for which the percent inhibition by sodium molybdate of constitutive AhR transformation/DNA binding in vitro (gel retardation) in [1] was 4.3%.

In turn, DRE3 displayed a binding signal (% of wt DNA binding) in the data set with AhR A375V;ARNT of 55. In addition, the binding signal (% inhibition by molybdate) is 61.7 in the data set with AhR D371A;ARNT; 5 in the data set on AhR F281A;ARNT; 67.1 in the data set with AhR R217A;ARNT; 9.1 in the data set with AhR/PASB-ARNT;ARNT; 4.3 in the data set with AhRdPASB;ARNT; 69.6 in the data set with wtAhR;ARNT. The molecule also came in with a binding signal (% DNA binding (reference)) in the data set with wtAhR;ARNT of 100.

On to `Clc1cc2c(cc1Cl)Oc1cc(Cl)c(Cl)cc1O2` [TCDD, 2,3,7,8-tetrachlorodibenzo-p-dioxin], for which the Kd was 4.6 ± 0.3 nM in [2] and 5 ± 0.4 nM in data set [3].

In data set [1], “wild type aryl hydrocarbon receptor (mouse) (from UniProt P30561 1-848) (natural protein)” registered a percent inhibition by sodium molybdate (up to 20 mM) of TCDD-dependent AhR transformation/DNA binding in vitro (gel retardation) of 69.6%.

Values taken from publication PMC7177239, “Transitional States in Ligand-Dependent Transformation of the Aryl Hydrocarbon Receptor into Its DNA-Binding Form” (International Journal of Molecular Sciences, 2020).
